Target: USP25 (UniProt Q9UHP3)
Assay: co-immunoprecipitation, western blot
Settings: reference: HA-STAT3 wild type; sites Y705

STAT3 (from UniProt P40763) HA-STAT3 Y705F
binding against the reference: weaker

Source: paper PMC11707020
